Target: human parathyroid hormone type 1 receptor (hPTHR) (human) (UniProt Q03431)
Experiment: radioligand binding

Chain of UniProt Q03431 (Q03431 27-593): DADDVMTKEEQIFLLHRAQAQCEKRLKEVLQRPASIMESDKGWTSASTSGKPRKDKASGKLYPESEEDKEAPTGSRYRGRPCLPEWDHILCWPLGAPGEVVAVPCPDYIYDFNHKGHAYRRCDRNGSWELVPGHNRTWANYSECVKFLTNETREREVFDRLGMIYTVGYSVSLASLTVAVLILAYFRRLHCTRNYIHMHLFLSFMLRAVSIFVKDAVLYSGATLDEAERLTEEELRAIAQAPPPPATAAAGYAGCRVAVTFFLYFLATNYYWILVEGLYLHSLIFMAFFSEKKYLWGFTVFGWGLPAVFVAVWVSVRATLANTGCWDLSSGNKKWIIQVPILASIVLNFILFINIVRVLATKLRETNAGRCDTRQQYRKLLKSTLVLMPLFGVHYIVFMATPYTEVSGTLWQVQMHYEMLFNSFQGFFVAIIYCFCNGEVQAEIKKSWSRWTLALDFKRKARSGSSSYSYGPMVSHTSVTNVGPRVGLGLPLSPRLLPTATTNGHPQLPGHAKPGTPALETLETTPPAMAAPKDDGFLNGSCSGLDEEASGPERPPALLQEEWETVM

Row | pKi | Substance
1 | 10.8 | M-PTH(1-15) (peptide)
2 | 8.26 | PTH(1-34) (peptide)

Reference: PMC8891041
